Laboratory results: patent publication US20130288908A1 (MITSUBISHI TANABE PHARMA, published 2013)

B1: Fab-TT (Fab)
chain 1: MDIQMTQSPSSLSASVGDRVTITCRASQDIKNYLSWYQQQPGNAPKPLIYAGSNRQSGVPSRFSGSGSETDFTLTISSLQPEDFATYYCQQTYIYPITFGQGTKVEIKRTVAAPSVFIFPPSDEQLKSGTASVVCLLNNFYPREAKVQWKVDNALQSGNSQESVTEQDSKDSTYSLSSTLTLSKADYEKHKVYACEVTHQGLSSPVTKSFNRGEGGEQKLISEEDL
chain 2: MEVQLVESGGGLVQPGGSLRLSCAASGFTIERYAMGWVRQAPGKGLEWVGTIYPWGDYTDYADSVKGRFTISRDNSKNTLYLQMNSLRDEDTAVYYCARSNYPNGMYYVMEYWGQGTLVTVSSASTKGPSVFPLAPSSKSTSGGTAALGCLVKDYFPEPVTVSWNSGALTSGVHTFPAVLQSSGLYSLSSVVTVPSSSLGTQTYICNVNHKPSNTKVDKKVEPGSGGDYKDDDDKSSDYKDDDDKHHHHHH
notes: also called Fag-TT; TNFαR-reactive Fab
B2: Fab-HT (Fab)
chain 1: not shown
chain 2: B1 chain 2
notes: also called hybrid Fab (Her-2-reactive L chain and TNFαR-reactive H chain)

Key:
biotinylated Her-2 = target: T1, biotinylated Her-2 (human, UniProt P04626 23-652, biotinylated with Sulfo-NHS-SS-Biotin (sites not given)); test: sandwich ELISA, biotinylated antigen captured on the stAv coating (BSA coating as control), Fab detected with HRP-labeled anti-FLAG antibody, OD 405 nm
T1 construct: also called biotinylated antigen

Her-2 = target: T2, Her-2 (human, UniProt P04626 23-652); test: ELISA, Her-2 immobilized at 1 µg/ml, detection with HRP-labeled anti-FLAG antibody, OD 405 nm
T2 construct: Bought protein (R&D systems); also called human EGFR-2 (Her-2); Her2 antigen

Row | Binder | binding result (biotinylated Her-2) | binding result (Her-2)
1 | B1 | no binding | no binding
2 | B2 |  | no binding
